One assay relates to human ESC. Put plainly: Eye field specification from differentiating human ESC: Pax6 and Rx gene expression (RT-PCR/qPCR) and neuroepithelial colony formation. It is filed as cell-based. The note with it: for appearance of neuroepithelial colonies / expression of Pax6 and Rx: Wnt3A and BMP4 added together (100 ng/ml) over the first 10 days of differentiation; for appearance of neuroepithelial colonies: morphology at day 10; for expression of Pax6 and Rx: qPCR. As for the experimental part: (1) Making human ESC aggregates: Human ESC were grown on irradiated MEFs to approximately 80% confluence in a 6-well plate. Upon reaching 80% confluence, the human ESC medium was aspirated off and 1 ml of dispase (1 mg/ml, Gibco #17105-041) solution was added to each well. After 5 minutes, the cells were examined for curling of human ESC colony edges, indicative of the colonies beginning to lift off of the plate. If noticeable curling was evident, the dispase solution was aspirated off of the plate and replaced with 1 ml of DMEM/F12 per well. The human ESC colonies were mechanically lifted from the plate by pipetting a few times with a 10 ml pipette. When all colonies were detached, the cells were transferred to a 15 ml conical tube and allowed to settle by gravity. After the aggregates had settled (˜5 minutes), the supernatant was aspirated and replaced with 10 ml of Embryoid Body (EB) medium, which contained DMEM/F12 (1:1) (Gibco #11330-065), 20% knockout serum replacement (Gibco #10828-028), 0.1 mM β-mercaptoethanol, 1 mM L-glutamine (Gibco #25030-081) and 1% MEM nonessential amino acids (Gibco #11140-050). The pellet of cells was resuspended by repeated pipetting 2-3 times with a 10 ml pipette, just enough to separate the individual aggregates while minimizing their dissociation. Aggregates were approximately 400 μm in diameter. These aggregates were then transferred to a T25 flask and placed in the incubator. The next day, the aggregates formed floating, sphere-like structures. (If significant attachment of human ESC and/or residual MEF cells was observed, the unattached aggregates were transferred to a new flask.) These cells were fed with fresh EB medium every day for the first 4 days.
(2) Differentiating to anterior neuroepithelial fate: The aggregates were then collected by settling in a 15 ml conical tube and washed once with 10 ml of DMEM/F12. Upon resettlement of the aggregates, the supernatant was removed and the aggregates were re-suspended in 10 ml of Neural Induction Medium (NIM) and transferred to a new T25 flask. NIM included DMEM/F12 (1:1) (Gibco #11330-065), 1% N2 supplement (Gibco #17502-048), 1% MEM nonessential amino acids (Gibco #11140-050), and 2 μg/ml heparin (Sigma #H-3149). Two days later, a 6-well plate was coated with laminin (20 μg/ml diluted in DMEM) and the coated plate was left in the incubator overnight. By this time, aggregates had become brighter and acquired clearly defined edges. The next day, approximately 50 aggregates were plated in each well of a 6 well plate. An additional 2 ml of fresh NIM was added to each well. The cells were then placed in the incubator, making sure the cells were distributed evenly in the plate by gently shaking the plate back and forth as well as side-to-side a few times. Within the first couple of days (by a total of 9 days), most aggregates attached to the laminin-coated surface. […]
RT-PCR experiments were done as follows to check gene expression: Total RNA was isolated from cell cultures from various stages of differentiation using the RNAeasy® kit (Qiagen) and treated with DNAse I. Reverse transcription was performed with the Superscript III RT-PCR kit (Invitrogen). […] For quantitative RT-PCR (qPCR), reactions were performed with Sybr Green Supermix (Applied Biosystems) and the Opticon 2 DNA Engine and Opticon Monitor 2.02 software (MJ Research). […]
(In qPCR the cycle at which signal appears reflects the starting amount.)

Another assay relates to human ESC cultures. Put plainly: Mitf and Chx10 gene expression (qPCR) in human ESC cultures treated during optic vesicle and optic cup stages. The format is cell-based. The settings on record: SU5402 added days 16-40, measured at day 40. As for the experimental part:
The columnar rosette cells found in the center of these colonies were denser than those cells in the periphery, so they were easily dislodged by this pipetting technique, leaving the non-rosette cells attached to the plate. We took care not to break up the lifted colonies during this step. Detached colonies were collected in a 15 ml conical tube and spun in a centrifuge at 600 rpm for 1 minute to effectively pellet the detached colonies while leaving most single cells in suspension in the culture medium. The supernatant was then aspirated from the tube and the clusters were re-suspended in 10 ml of Retinal Differentiation Medium (RDM) and transferred to a new T25 flask. RDM included DMEM/F12 (3:1) supplemented with 2% B27. […] Within 3-5 days after detachment of the cells (19th-21st day of the differentiation), neurospheres readily adopted one of two major appearances. […]
RT-PCR experiments were done as follows to check gene expression: Total RNA was isolated from cell cultures from various stages of differentiation using the RNAeasy® kit (Qiagen) and treated with DNAse I. Reverse transcription was performed with the Superscript III RT-PCR kit (Invitrogen). […] For quantitative RT-PCR (qPCR), reactions were performed with Sybr Green Supermix (Applied Biosystems) and the Opticon 2 DNA Engine and Opticon Monitor 2.02 software (MJ Research). […] Quantitative RT-PCR primers were run for 40 cycles.

Assay [1] has as its system hiPSC-derived vesicular neurospheres. The experiment in a line: RPE specification from hiPSC-derived vesicular neurospheres in the presence of Activin (bright field microscopy, qPCR). It is filed as cell-based, human. As for the experimental part: RT-PCR experiments were done as follows to check gene expression: Total RNA was isolated from cell cultures from various stages of differentiation using the RNAeasy® kit (Qiagen) and treated with DNAse I. Reverse transcription was performed with the Superscript III RT-PCR kit (Invitrogen). PCR was performed with GoTaq PCR master mix (Promega) and subsequent PCR products were run on 2% agarose gels. For quantitative RT-PCR (qPCR), reactions were performed with Sybr Green Supermix (Applied Biosystems) and the Opticon 2 DNA Engine and Opticon Monitor 2.02 software (MJ Research). All primer sets listed were run for 30 cycles at an annealing temperature of 60° C. unless otherwise noted. Quantitative RT-PCR primers were run for 40 cycles.
Activin signaling has previously been implicated in this cell fate determination and as such, we sought to determine if Activin could influence these cells to adopt an RPE fate. […] Based on this feature, these aggregates could be manually isolated to generate highly enriched populations of RPE. When plated onto a laminin-coated substrate and in the presence of the mitogens FGF2 and EGF, these cells were capable of proliferation and outgrowth from the aggregate (FIG. 18D). […] Further maturation of these treated cells confirms that Activin signaling plays a role in the acquisition of an RPE fate at the expense of the neural retina, as Activin-treated cultures expressed RPE-specific genes such as RPE65 at higher levels than the untreated cells, whereas untreated cells expressed higher levels of genes associated with the neural retina including Brn3A (FIG. 18E-F).

A further assay relates to hiPSCs. Put plainly: Neural/retinal specification of hiPSCs after addition of BMP and Wnt inhibitors (immunocytochemistry, FACS). The format is cell-based, human. The settings on record: for expression of Pax6: recombinant Dkk1 and Noggin added together from 2-4 days of differentiation, immunocytochemistry; for expression of Chx10: treatment with Dkk1 and Noggin together, after 20 days of differentiation, FACS. The protocol:
Immunocytochemistry was done as follows to check protein expression: human ESC aggregates or neurospheres were plated onto poly-ornithine- and laminin-coated coverslips overnight to allow for attachment, and then fixed with 4% paraformaldehyde. Cells were then permeabilized in 0.2% Triton X-100 for 10 minutes. For Mitf immunocytochemistry, cells were incubated in ice-cold 90% methanol for 10 minutes as an additional permeabilization step. Labeled cells were visualized with either Alexafluor 488- or Cy3-conjugated secondary antibodies, and nuclei were counterstained with either Hoechst or To-Pro-3 nuclear dyes. Images were obtained from a Nikon TE600 fluorescent microscope equipped with a SPOT camera and software or from z-stacks of cell clusters obtained on a Nikon Cl Laser Scanning Confocal microscope.
FACS analysis was done as follows to quantify the percentage of cells acquiring expression of Pax6 and Rx: Cells were dissociated with either trypsin or Accutase® (Chem icon), washed with a fluorescence-activated cell sorting (FACS) buffer (PBS, 0.1% sodium azide, and 2% donkey serum), and fixed with 0.1% paraformaldehyde for 10 minutes. Cells were then permeabilized with ice-cold 90% methanol for 20 minutes and incubated overnight in primary antibodies at a concentration of 1 μg of antibody per 1 million cells in FACS buffer. Antibody information is found in Table 2. Immunostaining was then completed with either donkey-anti-mouse or donkey-anti-rabbit Alexa 488 secondary antibodies for 2 hours, after which cells were washed with FACS buffer, and then sorted with a Becton Dickinson FACSCaliber. Data retrieved from the sorting was analyzed with CellQuest Pro software (Becton Dickinson).
To test this hypothesis, inhibitors of BMP signaling (Noggin or Dorsomorphin) and Wnt signaling (Dkk-1 or XAV-939) were added to cultures from days 2 to 4 of differentiation, a timeframe that was shown in Example 1 to be prior to the onset of neural specification based on Pax6 and Rax expression. […] This was further confirmed through immunocytochemistry, where cells treated with BMP and Wnt inhibitors were more likely to express the neural transcription factors Pax6 and Sox1 as well as eye field transcription factors Lhx2 and Six6.

On to `Cc1c[nH]c(/C=C2\C(=O)Nc3ccccc32)c1CCC(=O)O` [SU5402], for which, in the assay with human ESC (10 μM SU5402, day 10 of differentiation, RT-PCR), the “Pax6 and Rx expression” value is on record as “complete loss”. Further, in the assay with human ESC cultures, the “increase in Mitf gene expression” value was determined as 11.8 fold and the “reduction of Chx10 expression” value is 15.9 fold.

B1: Activin: Activin-A added to vesicular neurosphere cultures to influence RPE fate (protein, UniProt P08476 311-426, looked up)
Inhibin beta A chain: GLECDGKVNICCKKQFFVSFKDIGWNDWIIAPSGYHANYCEGECPSHIAGTSGSSLSFHSTVINHYRMRGHSPFANLKSCCVPTKLRPMSMLYYDDGQNIIKKDIQNMIVEECGCS
modifications: Inhibin beta A chain
With B1, in assay [1] (Activin added upon isolation of vesicular neurospheres until a total of 40 days of differentiation), the “development of pigmented, RPE-like phenotype” value is listed as “a subset of the neurospheres was capable of developing a pigmented phenotype”. Moreover, the “expression of neural retinal-associated genes” value in assay [1] (Activin-A treated versus untreated vesicular spheres, qPCR) was “lower levels”. Also, in assay [1] (Activin-treated versus untreated cultures, qPCR), the “expression of RPE-specific genes such as RPE65” value is “higher levels”.

B2: BMP4: recombinant BMP4, added to differentiating human ESC (protein, UniProt P12644 293-408, looked up)
Bone morphogenetic protein 4: SPKHHSQRARKKNKNCRRHSLYVDFSDVGWNDWIVAPPGYQAFYCHGDCPFPLADHLNSTNHAIVQTLVNSVNSSIPKACCVPTELSAISMLYLDEYDKVVLKNYQEMVVEGCGCR
As for B2, in the assay with human ESC, the “appearance of neuroepithelial colonies” value is “abolished”; the “expression of Pax6 and Rx” value is given as “abolished”.

B3: Noggin: recombinant Noggin, inhibitor of BMP signaling (protein, UniProt Q13253 28-232, looked up)
Noggin: QHYLHIRPAPSDNLPLVDLIEHPDPIFDPKEKDLNETLLRSLLGGHYDPGFMATSPPEDRPGGGGGAAGGAEDLAELDQLLRQRPSGAMPSEIKGLEFSEGLAQGKKQRLSKKLRRKLQMWLWSQTFCPVLYAWNDLGSRFWPRYVKVGSCFSKRSCSVPEGMVCKPSKSVHLTVLRWRCQRRGGQRCGWIPIQYPIISECKCSC
With B3, in the assay on hiPSCs, the “expression of Pax6” value is recorded as “restored” and the “expression of Chx10” value is given as “increased”.

B4: Dkk1: recombinant Dkk1, inhibitor of Wnt signaling (protein, UniProt O94907 32-266, looked up)
Dickkopf-related protein 1: TLNSVLNSNAIKNLPPPLGGAAGHPGSAVSAAPGILYPGGNKYQTIDNYQPYPCAEDEECGTDEYCASPTRGGDAGVQICLACRKRRKRCMRHAMCCPGNYCKNGICVSSDQNHFRGEIEETITESFGNDHSTLDGYSRRTTLSSKMYHTKGQEGSVCLRSSDCASGLCCARHFWSKICKPVLKEGQVCTKHRRKGSHGLEIFQRCYCGEGLSCRIQKDHHQASNSSRLHTCQRH
In the case of B4, in the assay on hiPSCs, the “expression of Pax6” value is listed as “restored” and the “expression of Chx10” value was “increased”.

B5: Wnt3A: recombinant Wnt3a, added to differentiating human ESC (protein, UniProt P56704 19-352, looked up)
Protein Wnt-3a: SYPIWWSLAVGPQYSSLGSQPILCASIPGLVPKQLRFCRNYVEIMPSVAEGIKIGIQECQHQFRGRRWNCTTVHDSLAIFGPVLDKATRESAFVHAIASAGVAFAVTRSCAEGTAAICGCSSRHQGSPGKGWKWGGCSEDIEFGGMVSREFADARENRPDARSAMNRHNNEAGRQAIASHMHLKCKCHGLSGSCEVKTCWWSQPDFRAIGDFLKDKYDSASEMVVEKHRESRGWVETLRPRYTYFKVPTERDLVYYEASPNFCEPNPETGSFGTRDRTCNVSSHGIDGCDLLCCGRGHNARAERRREKCRCVFHWCCYVSCQECTRVYDVHTCK
In the case of B5, in the assay with human ESC, the “appearance of neuroepithelial colonies” value is “abolished”; the “expression of Pax6 and Rx” value was “abolished”.

(Values after patent US9752119B2, “Substantially pure human retinal progenitor, forebrain progenitor, and retinal pigment epithelium cell cultures and methods of making the same” (Wisconsin Alumni Research Foundation, priority 2009, dated 2017).)
